Legend:
[1] = substrate: Nc1ncnc2c1ncn2[C@@H]1O[C@H](COP(=O)(O)OP(=O)(O)OP(=O)(O)O)[C@@H](O)[C@H]1O; test: coupled spectroscopic assay of pyrophosphate release (A340); type: biochemical, Trypanosoma brucei; settings: 150 nM enzyme, co-substrate methionine, 5 mM MgSO4 and 100 mM KCl in 50 mM HEPES assay buffer, pH 8.0, 37 °C, parenthesis = 95% CI
Source text: (§1) coupled spectroscopic assay of pyrophosphate release (A340) on TbAdoMetSyn

[2] = substrate: CSCC[C@H](N)C(=O)O; test: as above; type: biochemical, Trypanosoma brucei; settings: 150 nM enzyme, co-substrate ATP, 5 mM MgSO4 and 100 mM KCl in 50 mM HEPES assay buffer, pH 8.0, 37 °C, parenthesis = 95% CI
Source text: as §1

B1: TbAdoMetSyn (Trypanosoma brucei brucei TREU927) (protein)
chain: MSVRQIFFTSEHVSEGHPDKLCDQVSDAVLDACLEQDPLSKVACETCSKTGMVLVFGEITTKAVIDYQKVVRDTVKEIGFDNTEKGLDYRSLNLLVAVEQQSPDIYQGLGDFGGENLGAGDQGMMFGYATNETETLMPLSYELARGLAMTYSELRRNGGLPWARPDAKTQVTVQYEYDTRGGKQLLTPKRVAVILVSAQLDDGVSNETIREDLVKKVISTTIPAKFLDENTKYHLNPSGRFVIGGPHGDAGLTGRKIIVDTYGGWGAHGGGAFSGKDPSKVDRSAAYAARWIAKSLVAAGLADRCLVQLSYAIGVAEPLNIHVDTYGTGKRDDEYILGIVQKNFRLRPYDIIKELDLRRPIYRQTACFGHFGRVDTNGKGGFTWEVPKTLEGLSDVQ
notes: E. coli BL21(DE3); His6-tag removed by TEV protease
Km [1]: 0.31 (0.24–0.40) mM | kcat [1]: 0.21 s⁻¹ | Km [2]: 0.031 (0.025–0.039) mM | kcat [2]: 0.19 s⁻¹
